Our source for the fold change of SHP-2 co-precipitated with Siglec-3 values is patent publication US20210292413A1.

For experiment [1], the target named is T1, human Siglec-3 on cells (moDC, PBMC of CHB patients) (human), P20138. Briefly: co-IP (IP: Siglec-3) from moDC incubated with hHBV for 60 min; Western blot, densitometry, normalized to the starting point [E]. Background: In western blotting, separated proteins are transferred to a membrane and probed.
Experiment [2] deals with T1, human Siglec-3 on cells (moDC, PBMC of …). Nature of the experiment: co-IP (IP: Siglec-3) from moDC incubated 30 mins with 10^9 copies/mL hHBV; Western blot, densitometry, normalized to the first lane [F]. Conditions: remark: other sources report otherwise.
The target is the same in experiment [3]. Nature of the experiment: co-IP (IP: Siglec-3) from moDC incubated with hHBV for 30 min; Western blot, densitometry, normalized to the starting point [E].
For experiment [4] the target is unchanged. Nature of the experiment: co-IP (IP: Siglec-3) from moDC incubated with hHBV for 15 min; Western blot, densitometry, normalized to the starting point [E].
The target is the same in experiment [5]. Briefly: co-IP (IP: Siglec-3) from moDC incubated 30 mins with 10^8 copies/mL hHBV; Western blot, densitometry, normalized to the first lane [F]. Conditions: remark: other sources report otherwise.
Experiment [6] shares this target. Briefly: co-IP (IP: Siglec-3) from moDC incubated 30 mins with 3x10^8 copies/mL hHBV; Western blot, densitometry, normalized to the first lane [F]. Conditions: remark: other sources report otherwise.
Experiment [7] has the same target. Briefly: co-IP (IP: Siglec-3) from moDC treated with anti-Siglec-3 mAb 10C8; Western blot, densitometry, fold of Mock [A]. The following applies: remark: other sources report otherwise.
Experiment [8] shares this target. Briefly: co-IP (IP: Siglec-3) from moDC incubated 30 mins with 0 copies/mL hHBV; Western blot, densitometry, normalized to the first lane [F]. The following applies: remark: other sources report otherwise.
The target is the same in experiment [9]. Briefly: co-IP (IP: Siglec-3) from moDC, lane Mock; Western blot, densitometry [A]. Conditions: remark: other sources report otherwise.
Experiment [10] has the same target. Briefly: co-IP (IP: Siglec-3) from moDC, HBV -, 10C8 +; Western blot, densitometry, normalized to the untreated control [E]. Conditions: remark: other sources report otherwise.
For experiment [11] the target is unchanged. Briefly: co-IP (IP: Siglec-3) from moDC, HBV +, 10C8 + (10C8 given 1 hour before HBV); Western blot, densitometry, normalized to the untreated control [E]. Conditions: remark: other sources report otherwise.
The target is the same in experiment [12]. Briefly: co-IP (IP: Siglec-3) from moDC incubated with hHBV for 0 min; Western blot, densitometry, normalized to the starting point [E].
Experiment [13] has the same target. Briefly: co-IP (IP: Siglec-3) from moDC treated with anti-Siglec-3 mAb 2B9; Western blot, densitometry, fold of Mock [A]. Conditions: remark: other sources report otherwise.
For experiment [14] the target is unchanged. Briefly: co-IP (IP: Siglec-3) from moDC, HBV -, 10C8 -; Western blot, densitometry, normalized to the untreated control [E]. Conditions: remark: other sources report otherwise.
The target is the same in experiment [15]. Nature of the experiment: co-IP (IP: Siglec-3) from moDC treated with HBV (hHBV); Western blot, densitometry, fold of Mock [A]. Conditions: remark: other sources report otherwise.
Experiment [16] has the same target. Briefly: co-IP (IP: Siglec-3) from moDC, HBV +, 10C8 -; Western blot, densitometry, normalized to the untreated control [E]. The following applies: remark: other sources report otherwise.

T1 sequence (P20138 18-364): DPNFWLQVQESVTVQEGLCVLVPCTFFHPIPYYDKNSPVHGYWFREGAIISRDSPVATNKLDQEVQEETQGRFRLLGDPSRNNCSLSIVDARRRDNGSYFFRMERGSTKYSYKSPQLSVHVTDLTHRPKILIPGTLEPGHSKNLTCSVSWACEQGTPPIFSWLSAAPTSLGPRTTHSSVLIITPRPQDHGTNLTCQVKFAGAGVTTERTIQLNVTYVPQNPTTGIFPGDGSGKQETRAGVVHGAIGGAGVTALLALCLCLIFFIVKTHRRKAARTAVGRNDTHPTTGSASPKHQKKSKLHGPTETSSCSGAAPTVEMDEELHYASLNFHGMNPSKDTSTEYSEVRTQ

B1: SHP-2, Q06124 2-593 (protein, human, UniProt Q06124 2-593, looked up)
chain: TSRRWFHPNITGVEAENLLLTRGVDGSFLARPSKSNPGDFTLSVRRNGAVTHIKIQNTGDYYDLYGGEKFATLAELVQYYMEHHGQLKEKNGDVIELKYPLNCADPTSERWFHGHLSGKEAEKLLTEKGKHGSFLVRESQSHPGDFVLSVRTGDDKGESNDGKSKVTHVMIRCQELKYDVGGGERFDSLTDLVEHYKKNPMVETLGTVLQLKQPLNTTRINAAEIESRVRELSKLAETTDKVKQGFWEEFETLQQQECKLLYSRKEGQRQENKNKNRYKNILPFDHTRVVLHDGDPNEPVSDYINANIIMPEFETKCNNSKPKKSYIATQGCLQNTVNDFWRMVFQENSRVIVMTTKEVERGKSKCVKYWPDEYALKEYGVMRVRNVKESAAHDYTLRELKLSKVGQGNTERTVWQYHFRTWPDHGVPSDPGGVLDFLEEVHHKQESIMDAGPVVVHCSAGIGRTGTFIVIDILIDIIREKGVDCDIDVPKTIQMVRSQRSGMVQTEAQYRFIYMAVQHYIETLQRRIEEEQKSKRKGHEYTNIKYSLADQTSGDQSPLPPCTPTPPCAEMREDSARVYENVGLMQQQKSFR
Consider B1, for which the fold change of SHP-2 co-precipitated with Siglec-3 was 1.3 fold in experiment [1]; 1.6 fold in experiment [2]; 2.4 fold in [3]; 1.5 fold in experiment [4]; 1.1 fold in experiment [5]; 1.2 fold in experiment [6]. Further, the fold change of SHP-2 co-precipitated with Siglec-3 amounted to 1.3 fold in experiment [7]; 1 fold in experiment [8]; 1 fold in experiment [9]; 1.2 fold in experiment [10]; 1.6 fold in [11]; 1 fold in experiment [12]. The fold change of SHP-2 co-precipitated with Siglec-3 in experiment [13] amounted to 4.3 fold; in experiment [14], 1 fold; in experiment [15] it was 1.2 fold; in [16] it was 2.7 fold.
